B1: haloduracin A1 (peptide)
chain: MTNLLKEWKMPLERTHNNSNPAGDIFQELEDQDILAGVNGAENLYFQGCAWYNISCRLGNKGAYCTLTVECMPSCN
B2: haloduracin A2 (peptide)
chain: MVNSKDLRNPEFRKAQGLQFVDEVNEKELSSLAGSENLYFQGTTWPCATVGVSVALCPTTKCTSQC

Tested on: Bacillus subtilis PY79
Experiment: Haloduracin agar spot assay on indicator strain
Format: cell-based
Conditions: 5 μL of cleaved, desalted core peptide in 1:1 methanol:water on LB-agar
Description: To assay for antimicrobial activity, the cleaved and desalted core peptides were resuspended in 50 μL 1:1 methanol:water. Bacillus subtilis PY79 was used as indicator strain and was spread on a LB-agar surface, on which 5 μL of either or both haloduracins or a solvent control was added.

Molecule | antibacterial activity, growth inhibition on agar
B1 | minimal antibacterial activity
B2 | minimal antibacterial activity
